Experimental data from the nanobody polyreactivity screen of Harvey et al. (2022).

Test: yeast display, Sf9 membrane polyspecificity reagent, FACS + sequencing; frameworks hold sequencing errors
How it was run: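 Synthetic nanobody libraries on Saccharomyces cerevisiae BJ5465 were galactose-induced for 36–48 hours, stained 1 hour at 4 °C with 10% biotinylated, detergent-solubilized Sf9 membrane reagent and enriched on streptavidin microbeads. FACS then separated cells into low and high (top ~1%) gates by anti-HA (expression) and streptavidin (reagent binding) fluorescence. Genes were colony-PCR amplified, MiSeq 2 × 250 sequenced and CDR-length filtered. A clone's polyreactivity label is that of its gate of origin.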

Sequence	polyreactivity (PSR sort gate)
QVQLVESGGGLVQAGGSLRLSCAASGSTFGYNTMGWYRQAPGKERELVASITGRGGSTYYADSVKGRFTSSRDNAKNTVYLQMNSLKPEDTAVYYCAAAWKAYRRYGYWGQGTQVTVSS	high polyreactivity
QVQLVESAAGLVKAGASLRLSCAPSGSTFYLNAMGGSRQEPGQESEFVAAIRGGGTSTRYADSVKGRFTISRDNAKNSVYLQMNSLKPEDSAVYYCAAGPGGHRYKVGYWGLGTQVTVSS	high polyreactivity
QVQLVESGGGLVQAGGSLRLSCAASGRTFYQYDMGWYRQAPGKESELVAAIDWSGGSTYYADSVKGRFTISRDYAKITVYLQMNSLKPEDTAVYYCNADAYPHPVVGYDYWGQGTQVTVSS	low polyreactivity
QVQLVESGGGLVQAGGSLRLSCAASGIIFGYYAMGWYRQAPGKERELVASIIWSGGSTYYADSVKGRFTISRDNAKNTVYLQMNSLKPEDTAVYYCAAYRYQEYDYWGQGTQVTVSS	high polyreactivity
QVQLVESGGGLVQAGGSLRLSCAASVTIFGDYTMGWYRQAPGKERELVAAITWSAGRTYYADSVKGRFTISRDNAKNTVYLQMNSLKPEDTAVYYCAAQVPEDTETVDYWGQGTQVTVSS	low polyreactivity
QVQLVESGGGLVQAGGSLRLSCAASGRIFYGYARGWYRQAPGKERELVATITWSGGSTYYADSVKGRFTISRDNAKNTVYLQMNSLNPEDTAVYYCAAYSPYIYQAYRYDYWGQGTQVTVSS	low polyreactivity
QVQLVESGGGLVQAGGSLRLSCAASGSTFRYYAMGWYRQAPGKERELVAAISTGGTTYYADSVKGRFTISRENAKNTVYLQMNSLKPEDTAVYYCNTVRLFDYGYWGQGTQVTVSS	low polyreactivity
QVQLVESGGGLVQAGGILRLSCDASGSIFVYNAMGWYRQAPGKERELVAGITFIGGSTYYADSVKGRFTISRDNAKNTVYLQMNSLKPEDTAVYYCNADVAPGIFYGYDSWGQGTQVTVSS	low polyreactivity
QVQLVESGGGLVQAGGSLRLSCAASGFIFAWYAMGWYRQAPGKERELVAAISYSGGSTYYADSVKGRFTISRDNAKNTVYLEMNSLKPEDTAVYYCNKVSRGGSYGHAFDYWGQGTQVTVSS	high polyreactivity
QVQLVESGGGLVQAGGSLSLSCAASGFILDFNSLGWYRQAPGKERELVAAISISGVSTYYADSVKGRFTISRDNAKNTVYLQMHSLKPEDTAVYYGAAAQVAAVYWRPGGYDYWGQGTQVTVSS	low polyreactivity
QLQLVESGGGLVQAGGSLRLSCAATGYISNAMGWYRQPPGKERELVAAISRSGGSTYYADSVKGRFTISRDNAKNTVYLQMNSLKPEDTAVYYCAADYTYHDRRLDYWGQGTQVTVSS	low polyreactivity
QVQLVESGGGLVQAGGSLRLSCAASGSIFAKYAMGWYRQAPGKESEFVAAIRASGGRTYYADSVKGRFTISRDNAKNTVYLQMNSLKPEDTAVYYCAAHLYSSRSDYDGPRSRRNYWGQGTQVTVSS	high polyreactivity
QVQLVESGGGLVQAGGSLRLSCAASGRTLYYYAMGWYRQEPGKERELVAAISWSGGRTYYADSVKGRFTISRDNAKNTVYLQMNSLKAEDTAVYYCAAQYISRGYTVDYWGQGTQVTVSS	high polyreactivity
QVQLQESGGGLVQAGGSLRQSCTASGTIYYTSAMGWYRHAPGKDREFVAAIASGSSTNYADSVKGRFTISRDNAKNTVYLKMNSLKPEVTAVYYCAASERVRNIYQYWGQGTQVSVSS	high polyreactivity
QVQIVESGGGLVQAGGSLRLSCAASGRTFRENAMGWYRQAPGKERELVAAAISSGDGTNYADSVKGRFTISRDYAKNTVYLQMNSLQPEDTAVYYCAADGPRDSYDYWGQGTQVTVSS	low polyreactivity
QVQLVQSGGGLVQAGGSLSLSCAASGSIFNYNAMGWYRQAPGKERELVAAITSADGRTFYADSVKGRFTISRDNAKNTVYLQMNSLKPEDTAVYYCAAERTSRYSTYEYWGQGTQVTVSS	low polyreactivity
QVQLVESGGGLVQAGGSLRLSCAASGRIFNYYTMGWYRQAPGKEREFVAAISRSGGSTFYADSVKGRFTISRDNAKNTVYLQMNSLKPEDTAVYYCAARSYSRPDGGYVQLDYWGQGTQVTVSS	high polyreactivity
QVQLVESGGGLVQAGGSLRLSCAASGSTFFSYAMGWYRQAPGTERELVAAITRSGGSTYYADSVKGRFTISRDNAKNTVYLQMNSLKPEDTAVYYCAPRRYEPKAVYYWGQGTQVTVSS	high polyreactivity
QVQLVESGGGLVQAGGSLRLSCAASGSIFYNYAMGWSRQAPGKERELVAAITANTGSTYYADSVKGRFTISRVNAKNTVYLQMNSLKPEDTAVYYCATTWTIRRYRYSPRLVDYWGQGTQVTVSS	low polyreactivity
QVHLGESGARIDQAGGSLRLSCAASGRIFKYNAMGLYRQAPGKEREWVAAISSGGSTNYADTEKGRFTISRDNAKNTVYLQMNSLKPEDTAVYYCAADGTRVSSFHYLVWLGYWGQGTQVNVSS	low polyreactivity
QVQLIESGGGLVQAGGSLRLSCAASGSIFYNNTMGWYRQAPGKERELVATIRTSGGSTYADSVKGRYTISRDNAKNTLYLQMNSLKPEDTAVYYCAVRRYRSSSYYYWGQGTQVTVSS	high polyreactivity
QVQLVESGGGLVQAGGSLRLSCPASGRTFWYYAMGWYRQAPGKVRELVAAITWSGSDTYYADSVKGRFTISRDNAKNTVYVQMNSLKPEDTAVYFCAAEYYYESSGYDYWGQGTQVTVSS	high polyreactivity

Sequence	polyreactivity (PSR sort gate)
QVQLVESGGGLVQAGGSLRLSCAASGSIFEQYAMGWYRQAPGKERELVAGINWSTGSTYYADSVKGRFTISRDNAKNTVYLQMNSLKPEDTAVYYCAAEVAGALSDYDYWGQGTQVNVSS	low polyreactivity
QVQLVESGGGLVQAGGSLRLSCAASGITFTKYVMGWYRQAPGKERELVATIRWGASSTHYADSVKGRFRISRDNAKNTVYFQMNSLKPEDTAVYYCNADCWYGAVYWWFYGFDYWGQGTQVTVSS	low polyreactivity
QVQLVESGGGLVQAGGSLRLSCAASGSTFAAYVMGWYRQAPGKERELVAAITKSGSSTYYADSVKGRFTISRDNAKNTVYLQMNSLKPEDTAVEYCAAYPVRVLYDYWGQGTQVTVSS	high polyreactivity
HVQLVESGGGLVQAGGSLRLSCAASGFMFSGYAMGWYRQAPGKVRELVAAITWSGSNTFYADSVKGRFTISRDNAKNTVYLQRNSLKPEDTAVYYCNAVSKYKRSDYYYWGQGTQVTVSS	high polyreactivity
QVQLVESGGGLVQAGGSLRLSCAASGGIFNYYAMGWYRPAPGKVRELVAAISASGGSTYYADSVKGRFTISRDNAKNTVYLQMNSLIQEDTAVYYCAAGLPYGYGYDYWGQGTQVTVSS	low polyreactivity
QVQLVESGGGLVQAGGSLRLSCAASGRTFPGNAMGWYRQAPGKERELVAAISWSGTRTYYADSVKGRFTISRDNAKNTVYLQINSLKPEDTAVYYCAARRYGVRSYGFDSWGQGTQVTVSS	high polyreactivity
QVQLVESGGGIVQAGGSLRLRCAASGFTFERYSMGWYRQAPGKERELVATITRRSGRTSYADSVKGRFTISRDNATNTVYLQMNRLKPEDTAVYYCAVDDAYPDRYDYWGQGTQVTVSS	high polyreactivity
QVQLVESGGGLVQAGGSLRLSCAASGSIFRYYVMGWYRQAPGKERELVASITGSGGSTYYADSLKGRFTISRDNAKNTVYLQMNSLKPEDTAVYYCAASYRMRYGYWGQGTQVTVSS	high polyreactivity
QVQLVESGGGLVQAGGSLRLSCAASGNTFTTNAMGWYRQAPGKERELVAAIRWRADSTYYADSVKGRFTISRDNAKNTVYLQMNSLKPEDTAVYYCASRYSLRYYYWGQGTQVTVSS	low polyreactivity
QVQLVESGGGLVQAGGSLRLSCAASGFIFPYYAMGWYRQAPGKEREFVAAITFSATRTYYADSVKGRFTISRDNAKNTVYLQMNSLKPEDTAVYYCNARGGVYGSYFEFNYWGQGTQVTVSS	low polyreactivity
QVQLVESGGGIVQAGGSLRLSCAASGSIFYHNAMGWYRQAPGKERELVAAITGSGGSTYYADSVKGRFTISRDNAKNTVYLQMNSLKPEDTAVYYCAADGYTKWWISWGYDYWGQGTQVTVSS	low polyreactivity
QVQHVESGGGLVQAGGSLRLSCAASGRIFYAYAMGWYRQAPGKERELVASISGGGSTDYADSVKGRFTISRDNAKNTVYLQMNSLKPEDTGVYYCAAQYYLYRSRFDYWGQGTQVTVSS	high polyreactivity
QVQLVESGGGLVQAGRSLRLSCAASGRTFYYYAMVWNRQAPGKERELVAAISWRSGSTYYADSVKGRFTISRDNAKNTLYLQMNSLKPEDTAVYYCATSVRFYWFADGYWGQGTQVTVSS	high polyreactivity
QVQLVESGGGLVQAGGSLRLSCAASGRTFKYYAMGWYRQAPGKERELVASITRGSSTNYADSVKGRFTISRDNAKNTVYLQMNSLKPEDTAVYYCATGPGRALPRPTSAYYYWGQGTQVTVSS	high polyreactivity
QVQLVESGGGLVQAGGSLRLSCAASGRTIEWYAMGWYRQAPGKEREFVARISGIGGSTYYADSVKGRFTISRDKAENTVYLQMNSLKPEDTAVYYCAAVSYFGYYYWGQGTQVTVSS	high polyreactivity
QVQLVESGGGLVQAGGSLRLSCAASGSTFDGYAMGWYRQAPGKERELVAAITVSVGSTYYADSVKGRFTISRDNAKNTVYLQMNSLIPEDTAVYYCAADYDYHYRYYYWGQGTQVTVSS	low polyreactivity
QVQLVESGGGLVQAGGSLRLSCAASGIIFGSNAMGWYRQAPGKERELVAAITSGGNTYYADSVKGRFTISRDNAKNTVYLQMNSLKPEDTAVYYCAARRPRRYGYWGQGTQVTVSS	high polyreactivity
QVQLVESGGGLVQAGGSLRLSCAASGRTFYLYAMGWYIQAPGKERELVAGISRSGGSTYYADSVKGRFTISRDNAKNTVYLQMNSLKPEDTAVYYCAAGYYYWGQGTQVTVSS	high polyreactivity
QVQLVESGGGLVQAGGSLRLSCAASGFISFGNGMGWYRQAPGKERELVAAITRRGGSTYYADSVKGLFTISRDNAKNTVYLQMNSLKPEDTAVYYCDARYLGSTSTNRPPMDYWGQGTQVTVSS	high polyreactivity
QVQHVESVGGLVQAGGSLRLSCAASGYIFDYYDIGWYRQAPGKERELVAAINWSGGNTYYADSVKGRFTISRDNAKNTVYLQMKSLKPEDTAVYYCNADPTWSLEYGYWGQGTQVTVSS	low polyreactivity
QVQLVESGGGLVQAGGSLRLSCAASGITIWGYTMGWYRQAPGKERELVAAITSTGSTYYADSVKGRFTISRDNAKNHVYFQMNSQKPEDTSVYYCAATRGSSDYYYWGQGTQVTVSS	low polyreactivity
